Drawing on patent US20180334496A1 (KODIAK SCIENCES, published 2018), this text covers Kd, koff and kon for 16 molecules.

For test [1], the target named is T1, serum purified human Complement Factor D (human, UniProt P00746 26-253).
T1 construct: Serum purified protein flowed over the captured antibodies; also called CFD; human CFD
As to the kind of experiment: SPR Biacore, antibody on protein A chip, single cycle kinetics, 25 C.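 Also: antibodies captured to roughly 70 RU on the protein A surface in HBS-EP+ running buffer, with kinetic constants derived by BIAevaluation fitting.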 A general note: Surface plasmon resonance follows binding to a sensor surface in real time, without labels.
Method: (§1) Antibodies were diluted to 0.5 ug/ml in HBS-EP+ buffer and captured on a protein A chip for 25 seconds to reach approximately 70 resonance units. […] Binding kinetic information was obtained by the BIAevaluation software (GE).

The target of test [2] is T1, serum purified human Complement Factor D. As to the kind of experiment: SPR Biacore, antibody on protein A chip, single cycle kinetics, 37 C.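 Also: antibodies captured on the protein A surface to roughly 70 RU in HBS-EP+ buffer, with rate and affinity constants fitted using BIAevaluation software.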
Method: as §1
The target of test [3] is T2, recombinant cynomolgus CFD, His-tagged (cynomolgus).
T2 construct: also called rcyCFD-His; recombinant Cyno-CFD
As to the kind of experiment: SPR MX96.

Where “and” joins values, the source holds several entries; their conditions need not be identical. Identical values can stand only once.

T1 sequence (P00746 26-253): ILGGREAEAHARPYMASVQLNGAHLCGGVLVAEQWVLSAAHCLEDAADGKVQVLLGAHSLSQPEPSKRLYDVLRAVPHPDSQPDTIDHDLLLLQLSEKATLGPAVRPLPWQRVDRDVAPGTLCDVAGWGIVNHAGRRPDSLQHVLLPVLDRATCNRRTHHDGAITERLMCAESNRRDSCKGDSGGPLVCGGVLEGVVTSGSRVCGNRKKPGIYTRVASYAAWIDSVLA

B1: 54I59D / 54G60W101 (antibody, V domains shown)
VH: EVQLVESGGGLVQPGGSLRLSCAASGYTFTDYYMNWVRQAPGKGLEWIGDINPITGDTDYNADFKRRFTFSLDTSKSTAYLQMNSLRAEDTAVYYCTREGPSFAYWGQGTLVTVSS
VL: DIQLTQSPSSLSASVGDRVTITCRSSQTIVHSNGDTYLEWYQQKPGKAPNLLIGKVSNRWSGVPSRFSGSGSGTDFTLTISSLQPEDFATYYCFQGSHVPVTFGQGTKVEIK
What is called Kd is the concentration at which binding is half-saturated. In general, koff refers to the rate constant with which the complex falls apart. By kon is commonly meant a measure of how fast the partners come together. High values mean fast association, low ones slow association. In test [1], B1 registered a Kd of 0.0125 nM, a koff of 8.54e-05 s⁻¹ and a kon of 6.83e+06 M⁻¹ s⁻¹. For the same molecule, in test [2], the Kd is 0.00989 nM, the koff worked out at 0.000118 s⁻¹ and the kon came to 1.19e+07 M⁻¹ s⁻¹.

B2: 54V / 101V (antibody, V domains shown)
VH: EVQLVESGGGLVQPGGSLRLSCAASGYTFTDYYMNWVRQAPGKGLEWIGDINPVTGDTSYNADFKRRFTFSLDTSKSTAYLQMNSLRAEDTAVYYCTREGPSFAYWGQGTLVTVSS
VL: DIQLTQSPSSLSASVGDRVTITCRSSQTIVHSNGDTYLEWYQQKPGKAPNLLIYKVSNRFSGVPSRFSGSGSGTDFTLTISSLQPEDFATYYCFQGSHVPVTFGQGTKVEIK
notes: KCD119 TAF variant; full antibody captured on protein A
In test [1], B2 gave a Kd of 0.0688 nM, a koff of 0.000491 s⁻¹ and a kon of 7.14e+06 M⁻¹ s⁻¹. Also, in test [2], the Kd is 0.142 nM, the koff was 0.00158 s⁻¹ and the kon stood at 1.11e+07 M⁻¹ s⁻¹.

B3: 54V59D / 32W50I101V (antibody, V domains shown)
VH: EVQLVESGGGLVQPGGSLRLSCAASGYTFTDYYMNWVRQAPGKGLEWIGDINPVTGDTDYNADFKRRFTFSLDTSKSTAYLQMNSLRAEDTAVYYCTREGPSFAYWGQGTLVTVSS
VL: DIQLTQSPSSLSASVGDRVTITCRSSQTIVHWNGDTYLEWYQQKPGKAPILLIYKVSNRFSGVPSRFSGSGSGTDFTLTISSLQPEDFATYYCFQGSHVPVTFGQGTKVEIK
notes: as for B2
On to B3, for which, in test [1], the affinity, expressed as Kd, was 0.0158 nM; the koff was determined as 0.000105 s⁻¹; the kon is 6.64e+06 M⁻¹ s⁻¹. Moreover, in test [2], binding was characterised by a dissociation constant (Kd) of 0.0223 nM, the koff was 0.000305 s⁻¹ and the kon came to 1.37e+07 M⁻¹ s⁻¹.

B4: 54V59D / 32D60W101V (antibody, V domains shown)
VH: EVQLVESGGGLVQPGGSLRLSCAASGYTFTDYYMNWVRQAPGKGLEWIGDINPVTGDTDYNADFKRRFTFSLDTSKSTAYLQMNSLRAEDTAVYYCTREGPSFAYWGQGTLVTVSS
VL: DIQLTQSPSSLSASVGDRVTITCRSSQTIVHDNGDTYLEWYQQKPGKAPNLLIYKVSNRWSGVPSRFSGSGSGTDFTLTISSLQPEDFATYYCFQGSHVPVTFGQGTKVEIK
notes: as for B2
In test [1], B4 yielded an equilibrium dissociation constant (Kd) of 0.0102 nM, a koff of 0.000128 s⁻¹ and a kon of 1.25e+07 M⁻¹ s⁻¹. In test [2], the Kd was found to be 0.0415 nM, the koff came to 0.000371 s⁻¹ and the kon amounted to 8.93e+06 M⁻¹ s⁻¹.

B5: 54V56V / 101V (antibody, V domains shown)
VH: EVQLVESGGGLVQPGGSLRLSCAASGYTFTDYYMNWVRQAPGKGLEWIGDINPVTVDTSYNADFKRRFTFSLDTSKSTAYLQMNSLRAEDTAVYYCTREGPSFAYWGQGTLVTVSS
VL: DIQLTQSPSSLSASVGDRVTITCRSSQTIVHSNGDTYLEWYQQKPGKAPNLLIYKVSNRFSGVPSRFSGSGSGTDFTLTISSLQPEDFATYYCFQGSHVPVTFGQGTKVEIK
notes: as for B2
In the case of B5, in test [1], binding was put at a Kd of 0.0645 nM, the koff came to 0.000351 s⁻¹ and the kon stood at 5.44e+06 M⁻¹ s⁻¹. Besides, in test [2], the affinity, expressed as Kd, was 0.107 nM; the koff came to 0.00104 s⁻¹; the kon was 9.69e+06 M⁻¹ s⁻¹.

B6: 54V59D / 32D50I101V (antibody, V domains shown)
VH: EVQLVESGGGLVQPGGSLRLSCAASGYTFTDYYMNWVRQAPGKGLEWIGDINPVTGDTDYNADFKRRFTFSLDTSKSTAYLQMNSLRAEDTAVYYCTREGPSFAYWGQGTLVTVSS
VL: DIQLTQSPSSLSASVGDRVTITCRSSQTIVHDNGDTYLEWYQQKPGKAPILLIYKVSNRFSGVPSRFSGSGSGTDFTLTISSLQPEDFATYYCFQGSHVPVTFGQGTKVEIK
notes: as for B2
In test [1], B6 had a dissociation constant Kd of 0.0197 nM, a koff of 0.00016 s⁻¹ and a kon of 8.11e+06 M⁻¹ s⁻¹. Further, in test [2], binding was characterised by a dissociation constant (Kd) of 0.0274 nM, the koff was 0.00041 s⁻¹ and the kon was determined as 1.5e+07 M⁻¹ s⁻¹.

B7: 54V59D / 54R101V (antibody, V domains shown)
VH: EVQLVESGGGLVQPGGSLRLSCAASGYTFTDYYMNWVRQAPGKGLEWIGDINPVTGDTDYNADFKRRFTFSLDTSKSTAYLQMNSLRAEDTAVYYCTREGPSFAYWGQGTLVTVSS
VL: DIQLTQSPSSLSASVGDRVTITCRSSQTIVHSNGDTYLEWYQQKPGKAPNLLIRKVSNRFSGVPSRFSGSGSGTDFTLTISSLQPEDFATYYCFQGSHVPVTFGQGTKVEIKR
notes: KCD119 TAF variant
In test [1], B7 returned a Kd of 0.0119 nM, an off-rate (koff) of 0.000141 s⁻¹ and a kon of 1.19e+07 M⁻¹ s⁻¹. In test [2], this molecule displayed an equilibrium dissociation constant (Kd) of 0.0154 nM, a koff of 0.00037 s⁻¹ and a kon of 2.4e+07 M⁻¹ s⁻¹.

B8: 54I59D / 101V (antibody, V domains shown)
VH: EVQLVESGGGLVQPGGSLRLSCAASGYTFTDYYMNWVRQAPGKGLEWIGDINPITGDTDYNADFKRRFTFSLDTSKSTAYLQMNSLRAEDTAVYYCTREGPSFAYWGQGTLVTVSS
VL: DIQLTQSPSSLSASVGDRVTITCRSSQTIVHSNGDTYLEWYQQKPGKAPNLLIYKVSNRFSGVPSRFSGSGSGTDFTLTISSLQPEDFATYYCFQGSHVPVTFGQGTKVEIK
notes: as for B2
As for B8, in test [1], the Kd was 0.0204 nM and 0.0267 nM and 0.00908 nM; the koff is 0.000152 s⁻¹ and 0.000154 s⁻¹ and 5.74e-05 s⁻¹; the association rate constant (kon) was 7.43e+06 M⁻¹ s⁻¹ and 5.78e+06 M⁻¹ s⁻¹ and 6.32e+06 M⁻¹ s⁻¹. In test [2], the Kd was 0.0475 nM and 0.0184 nM; the koff was 0.000437 s⁻¹ and 0.000222 s⁻¹; the kon was 9.19e+06 M⁻¹ s⁻¹ and 1.21e+07 M⁻¹ s⁻¹.

B9: 54I59D / 54S60W101V (antibody, V domains shown)
VH: EVQLVESGGGLVQPGGSLRLSCAASGYTFTDYYMNWVRQAPGKGLEWIGDINPITGDTDYNADFKRRFTFSLDTSKSTAYLQMNSLRAEDTAVYYCTREGPSFAYWGQGTLVTVSS
VL: DIQLTQSPSSLSASVGDRVTITCRSSQTIVHSNGDTYLEWYQQKPGKAPNLLISKVSNRWSGVPSRFSGSGSGTDFTLTISSLQPEDFATYYCFQGSHVPVTFGQGTKVEIK
notes: Light label printed 54560W101V, read as 54S60W101V; also called 54I59D / 54560W101V
In test [1], B9 yielded a dissociation constant Kd of 0.00985 nM, a koff of 7.08e-05 s⁻¹ and a kon of 7.19e+06 M⁻¹ s⁻¹. In test [2], the Kd was determined as 0.0119 nM, the koff came to 0.000148 s⁻¹ and the kon was 1.24e+07 M⁻¹ s⁻¹.

B10: 54V59D / 34D60W101V (antibody, V domains shown)
VH: EVQLVESGGGLVQPGGSLRLSCAASGYTFTDYYMNWVRQAPGKGLEWIGDINPVTGDTDYNADFKRRFTFSLDTSKSTAYLQMNSLRAEDTAVYYCTREGPSFAYWGQGTLVTVSS
VL: DIQLTQSPSSLSASVGDRVTITCRSSQTIVHSNDDTYLEWYQQKPGKAPNLLIYKVSNRWSGVPSRFSGSGSGTDFTLTISSLQPEDFATYYCFQGSHVPVTFGQGTKVEIK
notes: as for B2
B10: in test [1], the dissociation constant Kd amounted to 0.0213 nM, the off-rate (koff) came to 0.000187 s⁻¹ and the kon stood at 8.8e+06 M⁻¹ s⁻¹. In test [2], this molecule displayed a Kd of 0.0531 nM, a koff of 0.00083 s⁻¹ and a kon of 1.56e+07 M⁻¹ s⁻¹.

B11: 54V59D / 34D50V101V (antibody, V domains shown)
VH: EVQLVESGGGLVQPGGSLRLSCAASGYTFTDYYMNWVRQAPGKGLEWIGDINPVTGDTDYNADFKRRFTFSLDTSKSTAYLQMNSLRAEDTAVYYCTREGPSFAYWGQGTLVTVSS
VL: DIQLTQSPSSLSASVGDRVTITCRSSQTIVHSNDDTYLEWYQQKPGKAPVLLIYKVSNRFSGVPSRFSGSGSGTDFTLTISSLQPEDFATYYCFQGSHVPVTFGQGTKVEIK
notes: as for B2
In test [1], B11 showed a Kd of 0.0257 nM, a koff of 0.000187 s⁻¹ and a kon of 7.26e+06 M⁻¹ s⁻¹. Besides, in test [2], binding was characterised by a dissociation constant (Kd) of 0.0591 nM, the koff is 0.00079 s⁻¹ and the kon stood at 1.34e+07 M⁻¹ s⁻¹.

B12: 31S54V59D / 54R101V (antibody, V domains shown)
VH: EVQLVESGGGLVQPGGSLRLSCAASGYTFTSYYMNWVRQAPGKGLEWIGDINPVTGDTDYNADFKRRFTFSLDTSKSTAYLQMNSLRAEDTAVYYCTREGPSFAYWGQGTLVTVSS
VL: DIQLTQSPSSLSASVGDRVTITCRSSQTIVHSNGDTYLEWYQQKPGKAPNLLIRKVSNRFSGVPSRFSGSGSGTDFTLTISSLQPEDFATYYCFQGSHVPVTFGQGTKVEIKR
notes: KCD119 TAF variant
As for B12, in test [1], the affinity, expressed as Kd, was 0.00394 nM; the dissociation rate constant (koff) amounted to 5.48e-05 s⁻¹; the kon came to 1.39e+07 M⁻¹ s⁻¹. Also, in test [2], binding was put at a Kd of 0.00725 nM, the off-rate constant (koff) came out at 0.000242 s⁻¹ and the kon turned out to be 3.33e+07 M⁻¹ s⁻¹.

B13: KCD129 (antibody, V domains shown)
VH: EVQLVESGGGLVQPKGSLKLSCAASGFSFNTYAMNWVRQAPGKGLEWVARIRSKSNNYATYYADSVKDRFTISRDDSESMVYLQMNNLKTEDTAMYYCVRHGYYWYFDVWGTGTTVTVSS
VL: DVLMTQTPLSLPVSLGDQASISCRSSQSIVHSDGNTYLEWYLQKPGQSPKLLIYRVSNRFSGVPDRFSGSGSGTDFTLKISRMEAEDLGVYYCFQGSHVPYTFGGGTKLEIK
Regarding B13, the Kd in test [3] stood at 6 nM.

B14: KCD207 (antibody, V domains shown)
VH: AVQLVESGGGLVQPKGSLKLSCAASGFSFNTYAMNWVRQAPGKGLEWVARIRSKSNNYATYYADSVKDRFTLSRDDSESMLYLQMNNLKTEDTAMYYCVRQGFYWYFDVWGTGTTVTVSS
VL: DVLMTQTPLSLPVSLGDQASISCRSSQTIVHSNGNTYLEWYLQKSGQSPKLLIYNVSNRFSGVPDRFRGSGSGTDFTLKISRVEAEDLGVYYCFQGSHVPYTFGSGTKLEIK
Regarding B14, the Kd in test [3] stood at 1.4 nM.

B15: KCD112 (antibody, V domains shown)
VH: EVQLQQSGPELVKPGASVKISCKASGYSFTAYYMNWVKHSPEKSLEWIGDINPSTGGTTYNQKFKARATLTVDKSSSTAYMQLKSLTSEDSAVYYCATTYYSGNSYVGFAYWGQGTLVTVSA
VL: DIVMTQSHKFMSTSVGDRVSITCKASQDVSTAVAWYQQKPGQSPKLLIFWTSTRHTGVPDRFTGSGSGTDYTLTISSVQAEDLALYYCQQHYTTPWTFGGGTKLEIK
Take B15: in test [3], the dissociation constant Kd was found to be 9.1 nM.

B16: KCD115 (antibody, V domains shown)
VH: EVQLQQSGPELVKPGASVKISCKASGYSFTGYYMNWVKQSPEKSLEWIGDINPSTGGTTYNQKFKAKATLTVDKSSSTAYMQLKSLTSEDSAVYYCATPYYYGSSYVGFAYWGQGTLVTVSA
VL: DIVMTQSHKFMSTSVGDRVSITCKASQDVSTAVDWYQQKPGQSPKLLIYWASTRHTGVPDRFTGSGSGTDYTLTISSVQAEDLALYYCQQHYSTPWTFGGGTKLEIK
B16: the Kd in test [3] amounted to 18 nM.
